Data reported in the Human Domainome abundance scans (Beltran et al. 2025).

B1: TGF-beta-activated kinase 1 and MAP3K7-binding protein 3, residues 12 to 50; numbered along this chain, Q8N5C8 (parent)
chain: VLHDLRQRFPEIPEGVVSQCMLQNNNNLEACCRALSQES

Variants of: B1
Experiment: abundance fitness (aPCA) (normalised: wild type 0, dead -1); higher = more abundant; growth selection in yeast, the domain comes from the species named
Settings: Homo sapiens

Abundance fitness of substitutions, site by site:
V1: A -0.38, D 0.022, E 0.043, F -0.228, G -0.193, L 0.311, M 0.19, N 0.252, Q 0.235, R -0.291, S -0.048, W -0.361
L2: A -0.187, E -0.588, F 0.211, G -0.583, H 0.077, I -0.049, N -0.058, P -0.246, Q -0.276, R -0.464, S -0.221, T -0.194, V -0.531, W -0.134
H3: C -0.191, D -0.066, E 0.201, F -0.342, G -0.078, I -0.096, K 0.09, M -0.023, N -0.14, P -0.483, Q 0.266, R 0.088, S 0.066, T -0.019, V -0.331, Y -0.391
D4: A 0.013, C -0.053, E 0.248, F 0.164, G -0.676, K 0.109, L 0.116, M -0.039, N -0.075, P -0.838, Q 0.167, R -0.112, S -0.118, T 0.02, V 0.127, W 0.017, Y -0.054
L5: A -0.905, D -0.191, E -0.362, H -0.4, I 0.286, K -0.532, M -0.493, Q -0.589, R -0.722, S -0.914, V -0.896, W -0.885
R6: A -0.279, C 0.107, E -0.212, G -0.486, H -0.036, K 0.11, L 0.056, M 0.142, P -0.91, Q -0.19, S -0.319, T -0.375, V -0.211, W -0.809
Q7: C -0.658, D -0.083, E 0.072, F -0.634, G -0.413, I -0.077, K 0.003, M 0.064, N -0.225, P -1.02, R 0.103, S 0.026, T -0.089, V -0.135, W -1.08
R8: A -0.544, C -0.987, D -0.722, E -0.469, G -0.944, H -0.907, I -0.403, K 0.054, L -0.168, M 0.071, P -1.08, Q -0.73, T -0.877, W -0.975
F9: C -0.65, D -0.616, E -0.682, G -0.818, I -0.784, K -0.544, L -0.935, M -0.428, N -0.559, R -0.751, S -0.597, T -0.798, V -0.865, W -0.964, Y -0.04
P10: A -0.943, D -0.672, E -0.758, G -0.78, K -1.07, L -1.16, M -0.806, Q -0.956, R -0.96, S -0.595, T -0.906, V -0.921, W -0.962
E11: A -0.511, D 0.111, F -0.479, G -0.13, H -0.11, K -0.535, L -0.416, M -0.213, N -0.115, P -0.764, Q -0.166, R -0.444, S -0.189, T -0.214, V -0.726, W -0.126, Y -0.324
I12: A -0.533, C -0.467, D -1.04, E -0.619, G -0.981, H -0.209, K -0.577, L -0.094, M -0.12, Q -0.43, R -0.788, S -0.825, T -0.276, V -0.042, W -0.737
P13: A -0.513, C -0.766, D -0.22, G -0.666, H -0.694, I -0.452, K -0.51, M -0.517, Q -0.62, R -0.782, S -0.42, T -0.767, V -0.774, W -0.771, Y -0.926
E14: C -0.613, D -0.308, F -1.02, G -0.829, H 0.117, I -0.246, K -0.831, L -0.142, M -0.377, N -0.738, P -0.143, Q -0.255, R -0.668, S -0.416, T -0.549, V -0.24, Y -0.256
G15: A 0.153, C 0.03, D 0.217, E 0.281, F -0.138, H 0.25, I -0.154, K 0.135, L -0.162, M -0.079, N 0.05, P 0.003, R 0.074, S 0.122, V -0.016, W 0.087, Y 0.139
V16: A -0.297, C -0.638, D -0.264, E -0.105, F -0.71, G -0.711, H -0.372, K -0.114, L -0.228, M -0.073, N -0.552, P -0.927, Q -0.155, R 0.032, S -0.58, T -0.16, W -0.683, Y 0.122
V17: A -0.647, C -0.566, D -0.624, F -0.65, G -0.795, H -0.7, I 0.266, K -0.955, L 0.084, M -0.395, N -0.468, P -0.568, Q -0.81, R -0.836, S -0.815, T -1.07, Y -0.811
S18: A 0.13, C -0.336, D -0.434, E 0.191, F -0.17, G -0.399, H 0.177, I -0.035, K 0.278, L 0.23, M 0.222, P -0.939, Q 0.268, R 0.345, T 0.136, V 0.218, Y -0.196
Q19: A 0.186, C -0.114, E 0.128, H -0.175, I 0.384, K 0.139, L -0.1, M -0.004, N -0.019, P -0.547, R 0.135, S -0.039, T -0.077, V -0.273, W -0.135, Y -0.345
C20: A 0.173, D 0.048, E -0.082, F -0.096, G -0.26, H -0.576, I 0.109, L -0.06, M 0.028, P -0.51, Q -0.175, R -0.405, S -0.103, T 0.063, W -0.37, Y 0.007
M21: A -0.347, D -0.691, E -0.695, F -0.487, G -0.811, H -0.82, L -0.015, P -0.68, Q -0.937, R -0.872, S -0.718, T -1.17, V -0.349, W -0.732, Y -0.189
L22: A 0.173, C -0.377, D -0.06, E 0.164, F -0.188, G -0.266, H 0.023, K 0.264, M 0.041, Q 0.057, R 0.152, S -0.045
